# Columns and labels:
# [1] = system: gastric (NCI-N87), pancreatic (Capan-1), and breast (MDA-MB-468) human cancer cell lines; assay: 4-day MTS assay, potency of the conjugate; assay type: cell-based; conditions: range over NCI-N87, Capan-1 and MDA-MB-468
# Experimental: Retention of antibody binding was confirmed by cell binding assays comparing binding of the conjugate to unconjugated antibody (Chari, 2008, Acc Chem Res 41:98-107). The potency of the conjugate was tested in a 4-day MTS assay using appropriate target cells.
# [2] = system: MDA-MB-468, AG S, NCI-N87 and Capan-1 solid tumor cell lines; assay: cytotoxicity of P2PDox-mAb conjugates to target cells; assay type: cell-based, human; conditions: not shown
# Source text: The cytotoxicity of P2PDox-mAb conjugates to target cells was examined. hRS7-P2PDox and hMN-15-P2PDox were cytotoxic to MDA-MB-468, AG S, NCI-N87 and Capan-1 solid tumor cell lines (not shown). hMN-14-P2PDox was cytotoxic to Capan-1, BxPC-3 and AsPC-1 human pancreatic tumor lines and AGS, NCI-N87 and LS147T human gastric and colonic tumor lines (not shown). hLL2-P2PDOx was cytotoxic to Daudi, Raji, Ramos and JVM-3 hematopoietic tumor lines (not shown). IC50 values for the conjugates were in the nanomolar concentration range (not shown).
# [3] = system: Trop-2-positive human pancreatic adenocarcinoma cell line (BxPC-3); assay: ADCC with PBMCs, effector to target ratio 100:1; assay type: cell-based; conditions: 33.3 nM
# Experimental: The ADCC activity of various hRS7-ADC conjugates was determined in comparison to hRS7 IgG (FIG. 17). PBMCs were purified from blood purchased from the Blood Center of New Jersey. A Trop-2-positive human pancreatic adenocarcinoma cell line (BxPC-3) was used as the target cell line with an effector to target ratio of 100:1. ADCC mediated by hRS7 IgG was compared to hRS7-Pro-2-PDox, hRS7-CL2A-SN-38, and the reduced and capped hRS7-NEM. All were used at 33.3 nM.
# [4] = tolerability / toxicity of hRS7-P2PDox in mice
# Experimental: Tumor size was determined by caliper measurements of length (L) and width (W) with tumor volume calculated as (L×W^2)/2. Tumors were measured and mice weighed twice a week. Mice were euthanized if their tumors reached >1 cm^3 in size, lost greater than 15% of their starting body weight, or otherwise became moribund. Statistical analysis for the tumor growth data was based on area under the curve (AUC) and survival time. Profiles of individual tumor growth were obtained through linear curve modeling. An f-test was employed to determine equality of variance between groups prior to statistical analysis of growth curves. A two-tailed t-test was used to assess statistical significance between all the various treatment groups and non-specific controls. For the saline control analysis a one-tailed t-test was used to assess significance. Survival studies were analyzed using Kaplan-Meier plots (log-rank analysis), using the Prism GraphPad Software (v4.03) software package (Advanced Graphics Software, Inc.; Encinitas, Calif.). All doses in preclinical experiments are expressed in antibody amounts. In terms of drug, 100 μg of antibody (5 mg/kg) in a 20-g mouse, for example, carries 1.4 μg-2.8 μg ([…]) of P2PDox equivalent dose when using an ADC with 3-6 drugs/IgG.
# Using this dosing regimen, we examined the therapeutic effect of hRS7-P2PDox in 2 human tumor xenograft models, Capan-1 (pancreatic cancer) and NCI-N87 (gastric cancer). Therapy began 7 days after tumor transplantation in nude mice.
# Conjugates were prepared and evaluated with mean drug/MAb substitution ratios (MSRs) of ˜6:1 and ˜3:1. Groups of normal mice (n=5) were administered, i.v., single doses of unmodified hRS7 or hRS7-P2PDox with drug substitution of 6.8 or 3.7 (same protein dose), and serum samples were collected at 30 min, 4 h, 24 h, 72 h, and 168 h post-injection. These were analyzed by ELISA for antibody concentration.
# Anti-TROP-2 antibody conjugate, hRS7-P2PDox, was evaluated in nude mice bearing NCI-N87 human gastric cancer xenografts by administering a single bolus protein dose of 9 mg/kg, 6.75 mg/kg, 4.5 mg/kg, 2.25 mg/kg, or 1 mg/kg. The therapy was started when the mean tumor volume (mTV) was 0.256 cm^3.
# [5] = system: triple-negative breast cancer; assay: treatment of triple-negative breast cancer patients; assay type: in vivo, human
# Experimental: P2PDox-hRS7 ADC is prepared as described in Examples 1 and 3 above. Patients with triple-negative breast cancer who had failed at least two standard therapies receive 3 cycles of 70 mg P2PDox-hRS7 injected i.v. every 3 weeks. Objective responses are observed at this dose level of P2PDox-hRS7, with an average decrease in tumor volume of 35%, after two cycles of therapy. All serum samples evaluated for human anti-hRS7 antibody (HAHA) are negative.
substance,measurement,setting,value
hRS7-P2PDox,IC50,[1],0.35 to 1.09 nM
same,cytotoxicity,[2],cytotoxic
same,specific lysis (ADCC),[3],not significantly different
same,toxicity of the three dosage schedules,"[4]; 45 μg q4dx4, 90 μg weekly×2, single 180 μg (not shown)",similarly low levels of toxicity
same,tolerability of 4 doses of 45 μg given in 2 weeks,[4]; 4 doses of 45 μg in 2 weeks,tolerated by all animals
same,MTD,"[4]; single bolus protein dose, nude mice bearing NCI-N87",9 mg/kg
same,lethal single i.v. dose,"[4]; single i.v. dose, antibody amount [~10 μg of P2PDox]",≥ 300 µg
same,average decrease in tumor volume,"[5]; 70 mg i.v. every 3 weeks, after two cycles of therapy",35%
same,human anti-hRS7 antibody (HAHA) in serum samples,"[5]; human, in vivo",negative
